Test results taken from publication PMC5512444 (Structure (London, England : 1993), 2017).
Where two headings read alike, the source gives them in different places.

Key:
Ube2g2 (Homo sapiens) [1] = target: Ube2g2 (Homo sapiens) (UniProt P60604); details: cited from earlier work
Ube2g2 (Homo sapiens) [2] = target: Ube2g2 (Homo sapiens) (UniProt P60604); details: cited from earlier work; remark: listed apart in the source
Ube2g2 (Homo sapiens) [3] = target: Ube2g2 (Homo sapiens) (UniProt P60604); details: cited from earlier work; remark: listed apart in the source
Ube2g2 (Homo sapiens) [4] = target: Ube2g2 (Homo sapiens) (UniProt P60604); details: cited from earlier work; remark: listed apart in the source
Ube2g2 (wild type) = target: T1, Ube2g2 (wild type) (human, UniProt P60604 1-165); experiment: NMR 15N heteronuclear NOE of the complex compared with the free protein
T1 sequence: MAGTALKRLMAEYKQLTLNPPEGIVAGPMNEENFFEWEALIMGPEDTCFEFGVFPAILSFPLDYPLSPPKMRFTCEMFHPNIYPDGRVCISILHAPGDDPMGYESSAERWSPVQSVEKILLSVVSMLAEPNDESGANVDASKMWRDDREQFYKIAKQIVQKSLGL

Y103G-Ube2g2 = target: T2, Y103G-Ube2g2 (human, UniProt P60604 1-165, Y103G); experiment: ITC
T2 sequence: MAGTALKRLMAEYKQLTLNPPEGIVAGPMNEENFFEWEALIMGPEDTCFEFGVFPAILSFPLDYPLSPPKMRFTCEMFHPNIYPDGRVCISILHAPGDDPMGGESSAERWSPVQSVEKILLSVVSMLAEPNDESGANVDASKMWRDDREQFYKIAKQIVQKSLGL

C89K-Ube2g2 = target: T3, C89K-Ube2g2 (human, UniProt P60604 1-165, C89K); experiment: NMR 15N CPMG relaxation dispersion of the complex compared with the free protein
T3 sequence: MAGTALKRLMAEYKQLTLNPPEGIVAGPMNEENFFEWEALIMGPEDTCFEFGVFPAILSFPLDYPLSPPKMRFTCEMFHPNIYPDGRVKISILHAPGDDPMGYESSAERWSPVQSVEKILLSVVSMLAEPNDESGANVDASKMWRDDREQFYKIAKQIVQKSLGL

Molecule: gp78 G2BR (from UniProt Q9UKV5)
- Kd (Ube2g2 (Homo sapiens) [1]): 21 nM

Molecule: gp78 RING-G2BR (from UniProt Q9UKV5)
- Kd (Ube2g2 (Homo sapiens) [2]): 38 nM

Molecule: gp78 RING (from UniProt Q9UKV5)
- Kd (Ube2g2 (Homo sapiens) [3]): 3000 nM
- Kd (Ube2g2 (Homo sapiens) [4]): 144 µM

B1: G2BR peptide of gp78 (Ube2g2 binding region) (peptide)
peptide: WSADERQRMLVQRKDELLQQARKRFLNK
- binding result (Ube2g2 (wild type)): binds
- Kd (Y103G-Ube2g2): 59 ± 6 nM
- dH (Y103G-Ube2g2): -39.5 ± 0.4 kcal/mol
- stoichiometry N (Y103G-Ube2g2): 0.95

B2: RING-G2BR fusion protein of gp78 (domain or fragment, human)
chain: KNYLRVVGNMEARFAVATPEELAVNNDDCAICWDSMQAARKLPCGHLFHNSCLRSWLEQDTSCPTCRMSLNIADNNRVREEGGGGGGGSSGSSGGSGGGSGSSSGGGGGSGGGSGGGGGGGADERQRMLVQRKDELLQQARKRFLNK
- binding result (C89K-Ube2g2): binds
